Measurements as given in US20120219562A1 (AbbVie / Abbott, published 2012).
Like-named read-outs stand apart in the source and are kept apart here.

T1: human interleukin 12 (p70 heterodimer of p35 and p40) (human, UniProt P29459 23-219; P29460 23-328)
T1 construct: Recombinant human IL-12; also called hIL-12; IL-12
T1 sequence (looked up) 1: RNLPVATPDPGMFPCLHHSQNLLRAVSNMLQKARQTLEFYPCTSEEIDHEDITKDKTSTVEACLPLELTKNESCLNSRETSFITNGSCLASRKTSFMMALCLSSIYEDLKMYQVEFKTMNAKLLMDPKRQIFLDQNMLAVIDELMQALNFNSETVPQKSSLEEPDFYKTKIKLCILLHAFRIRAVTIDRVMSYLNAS
T1 sequence (looked up) 2: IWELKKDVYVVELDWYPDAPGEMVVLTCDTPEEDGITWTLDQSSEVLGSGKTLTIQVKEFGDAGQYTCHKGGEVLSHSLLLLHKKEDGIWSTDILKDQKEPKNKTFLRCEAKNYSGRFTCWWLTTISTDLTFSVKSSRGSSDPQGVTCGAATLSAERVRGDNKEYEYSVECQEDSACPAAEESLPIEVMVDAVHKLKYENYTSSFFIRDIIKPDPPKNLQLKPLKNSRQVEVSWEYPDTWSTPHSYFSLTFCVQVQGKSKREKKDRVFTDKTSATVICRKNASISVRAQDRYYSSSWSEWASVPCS


How the values were obtained:
[1] = biological target: T1, human interleukin 12 (p70 heterodimer …); experiment: SPR (BIAcore), off-rate
[2] = biological target: T1, human interleukin 12 (p70 heterodimer …); experiment: SPR (BIAcore), off-rate; remark: listed apart in the source

Row | Binder | koff [1] | koff [2]
1 | SEQ ID NO: 499 (Y61, Q at L32) (antibody, V domains shown) VH: QVQLVQSGGGVVQPGRSLRLSCAASGFTFSSYGMHWVRQAPGKGLEWVAFIRYDGSNKYYADSVKGRFTISRDNSKNTLYLQMKSLRAEDTAVYYCKTHGSHDNWGQGTMVTVSS VL: SYVLTQPPSVSGTPGQRVTISCSGGRSNIGSNQVKWYQQLPGTAPKLLIYGNDQRPSGVPDRFSGSKSGTSASLAITGVQAEDEADYYCQSYDRGTHPALLFGTGTKVTVLG | 0.00247 s⁻¹ | –
2 | SEQ ID NO: 513 (Y61, R at L50) (antibody, V domains shown) VH: QVQLVQSGGGVVQPGRSLRLSCAASGFTFSSYGMHWVRQAPGKGLEWVAFIRYDGSNKYYADSVKGRFTISRDNSKNTLYLQMKSLRAEDTAVYYCKTHGSHDNWGQGTMVTVSS VL: SYVLTQPPSVSGTPGQRVTISCSGGRSNIGSNTVKWYQQLPGTAPKLLIYRNDQRPSGVPDRFSGSKSGTSASLAITGVQAEDEADYYCQSYDRGTHPALLFGTGTKVTVLG | – | 0.000444 s⁻¹
3 | SEQ ID NO: 502 (Y61, V at L32) (antibody, V domains shown) VH: QVQLVQSGGGVVQPGRSLRLSCAASGFTFSSYGMHWVRQAPGKGLEWVAFIRYDGSNKYYADSVKGRFTISRDNSKNTLYLQMKSLRAEDTAVYYCKTHGSHDNWGQGTMVTVSS VL: SYVLTQPPSVSGTPGQRVTISCSGGRSNIGSNVVKWYQQLPGTAPKLLIYGNDQRPSGVPDRFSGSKSGTSASLAITGVQAEDEADYYCQSYDRGTHPALLFGTGTKVTVLG | 0.00164 s⁻¹ | –
4 | SEQ ID NO: 505 (Y61, P at L32) (antibody, V domains shown) VH: QVQLVQSGGGVVQPGRSLRLSCAASGFTFSSYGMHWVRQAPGKGLEWVAFIRYDGSNKYYADSVKGRFTISRDNSKNTLYLQMKSLRAEDTAVYYCKTHGSHDNWGQGTMVTVSS VL: SYVLTQPPSVSGTPGQRVTISCSGGRSNIGSNPVKWYQQLPGTAPKLLIYGNDQRPSGVPDRFSGSKSGTSASLAITGVQAEDEADYYCQSYDRGTHPALLFGTGTKVTVLG | 0.000424 s⁻¹ | –
5 | SEQ ID NO: 508 (Y61, C at L50) (antibody, V domains shown) VH: QVQLVQSGGGVVQPGRSLRLSCAASGFTFSSYGMHWVRQAPGKGLEWVAFIRYDGSNKYYADSVKGRFTISRDNSKNTLYLQMKSLRAEDTAVYYCKTHGSHDNWGQGTMVTVSS VL: SYVLTQPPSVSGTPGQRVTISCSGGRSNIGSNTVKWYQQLPGTAPKLLIYCNDQRPSGVPDRFSGSKSGTSASLAITGVQAEDEADYYCQSYDRGTHPALLFGTGTKVTVLG | – | 0.000467 s⁻¹
6 | SEQ ID NO: 511 (Y61, H at L50) (antibody, V domains shown) VH: QVQLVQSGGGVVQPGRSLRLSCAASGFTFSSYGMHWVRQAPGKGLEWVAFIRYDGSNKYYADSVKGRFTISRDNSKNTLYLQMKSLRAEDTAVYYCKTHGSHDNWGQGTMVTVSS VL: SYVLTQPPSVSGTPGQRVTISCSGGRSNIGSNTVKWYQQLPGTAPKLLIYHNDQRPSGVPDRFSGSKSGTSASLAITGVQAEDEADYYCQSYDRGTHPALLFGTGTKVTVLG | – | 0.000761 s⁻¹
7 | SEQ ID NO: 501 (Y61, A at L32) (antibody, V domains shown) VH: QVQLVQSGGGVVQPGRSLRLSCAASGFTFSSYGMHWVRQAPGKGLEWVAFIRYDGSNKYYADSVKGRFTISRDNSKNTLYLQMKSLRAEDTAVYYCKTHGSHDNWGQGTMVTVSS VL: SYVLTQPPSVSGTPGQRVTISCSGGRSNIGSNAVKWYQQLPGTAPKLLIYGNDQRPSGVPDRFSGSKSGTSASLAITGVQAEDEADYYCQSYDRGTHPALLFGTGTKVTVLG | 0.00191 s⁻¹ | –
8 | SEQ ID NO: 504 (Y61, I at L32) (antibody, V domains shown) VH: QVQLVQSGGGVVQPGRSLRLSCAASGFTFSSYGMHWVRQAPGKGLEWVAFIRYDGSNKYYADSVKGRFTISRDNSKNTLYLQMKSLRAEDTAVYYCKTHGSHDNWGQGTMVTVSS VL: SYVLTQPPSVSGTPGQRVTISCSGGRSNIGSNIVKWYQQLPGTAPKLLIYGNDQRPSGVPDRFSGSKSGTSASLAITGVQAEDEADYYCQSYDRGTHPALLFGTGTKVTVLG | 0.00154 s⁻¹ | –
9 | SEQ ID NO: 509 (Y61, S at L50) (antibody, V domains shown) VH: QVQLVQSGGGVVQPGRSLRLSCAASGFTFSSYGMHWVRQAPGKGLEWVAFIRYDGSNKYYADSVKGRFTISRDNSKNTLYLQMKSLRAEDTAVYYCKTHGSHDNWGQGTMVTVSS VL: SYVLTQPPSVSGTPGQRVTISCSGGRSNIGSNTVKWYQQLPGTAPKLLIYSNDQRPSGVPDRFSGSKSGTSASLAITGVQAEDEADYYCQSYDRGTHPALLFGTGTKVTVLG | – | 0.000286 s⁻¹
10 | SEQ ID NO: 507 (Y61, E at L50) (antibody, V domains shown) VH: QVQLVQSGGGVVQPGRSLRLSCAASGFTFSSYGMHWVRQAPGKGLEWVAFIRYDGSNKYYADSVKGRFTISRDNSKNTLYLQMKSLRAEDTAVYYCKTHGSHDNWGQGTMVTVSS VL: SYVLTQPPSVSGTPGQRVTISCSGGRSNIGSNTVKWYQQLPGTAPKLLIYENDQRPSGVPDRFSGSKSGTSASLAITGVQAEDEADYYCQSYDRGTHPALLFGTGTKVTVLG | – | 0.000617 s⁻¹
11 | SEQ ID NO: 514 (Y61, N at L50) (antibody, V domains shown) VH: QVQLVQSGGGVVQPGRSLRLSCAASGFTFSSYGMHWVRQAPGKGLEWVAFIRYDGSNKYYADSVKGRFTISRDNSKNTLYLQMKSLRAEDTAVYYCKTHGSHDNWGQGTMVTVSS VL: SYVLTQPPSVSGTPGQRVTISCSGGRSNIGSNTVKWYQQLPGTAPKLLIYNNDQRPSGVPDRFSGSKSGTSASLAITGVQAEDEADYYCQSYDRGTHPALLFGTGTKVTVLG | – | 0.000305 s⁻¹
12 | SEQ ID NO: 512 (Y61, K at L50) (antibody, V domains shown) VH: QVQLVQSGGGVVQPGRSLRLSCAASGFTFSSYGMHWVRQAPGKGLEWVAFIRYDGSNKYYADSVKGRFTISRDNSKNTLYLQMKSLRAEDTAVYYCKTHGSHDNWGQGTMVTVSS VL: SYVLTQPPSVSGTPGQRVTISCSGGRSNIGSNTVKWYQQLPGTAPKLLIYKNDQRPSGVPDRFSGSKSGTSASLAITGVQAEDEADYYCQSYDRGTHPALLFGTGTKVTVLG | – | 0.00243 s⁻¹
13 | SEQ ID NO: 503 (Y61, L at L32) (antibody, V domains shown) VH: QVQLVQSGGGVVQPGRSLRLSCAASGFTFSSYGMHWVRQAPGKGLEWVAFIRYDGSNKYYADSVKGRFTISRDNSKNTLYLQMKSLRAEDTAVYYCKTHGSHDNWGQGTMVTVSS VL: SYVLTQPPSVSGTPGQRVTISCSGGRSNIGSNLVKWYQQLPGTAPKLLIYGNDQRPSGVPDRFSGSKSGTSASLAITGVQAEDEADYYCQSYDRGTHPALLFGTGTKVTVLG | 0.00215 s⁻¹ | –
14 | SEQ ID NO: 506 (Y61, D at L50) (antibody, V domains shown) VH: QVQLVQSGGGVVQPGRSLRLSCAASGFTFSSYGMHWVRQAPGKGLEWVAFIRYDGSNKYYADSVKGRFTISRDNSKNTLYLQMKSLRAEDTAVYYCKTHGSHDNWGQGTMVTVSS VL: SYVLTQPPSVSGTPGQRVTISCSGGRSNIGSNTVKWYQQLPGTAPKLLIYDNDQRPSGVPDRFSGSKSGTSASLAITGVQAEDEADYYCQSYDRGTHPALLFGTGTKVTVLG | – | 0.000348 s⁻¹

Second part, the binder after the results:

Row | koff [1] | koff [2] | Binder
15 | – | 0.000372 s⁻¹ | SEQ ID NO: 518 (Y61, A at L50) (antibody, V domains shown) VH: QVQLVQSGGGVVQPGRSLRLSCAASGFTFSSYGMHWVRQAPGKGLEWVAFIRYDGSNKYYADSVKGRFTISRDNSKNTLYLQMKSLRAEDTAVYYCKTHGSHDNWGQGTMVTVSS VL: SYVLTQPPSVSGTPGQRVTISCSGGRSNIGSNTVKWYQQLPGTAPKLLIYANDQRPSGVPDRFSGSKSGTSASLAITGVQAEDEADYYCQSYDRGTHPALLFGTGTKVTVLG
16 | – | 0.000272 s⁻¹ | SEQ ID NO: 516 (Y61, T at L50) (antibody, V domains shown) VH: QVQLVQSGGGVVQPGRSLRLSCAASGFTFSSYGMHWVRQAPGKGLEWVAFIRYDGSNKYYADSVKGRFTISRDNSKNTLYLQMKSLRAEDTAVYYCKTHGSHDNWGQGTMVTVSS VL: SYVLTQPPSVSGTPGQRVTISCSGGRSNIGSNTVKWYQQLPGTAPKLLIYTNDQRPSGVPDRFSGSKSGTSASLAITGVQAEDEADYYCQSYDRGTHPALLFGTGTKVTVLG
17 | – | 0.000348 s⁻¹ | SEQ ID NO: 515 (Y61, Q at L50) (antibody, V domains shown) VH: QVQLVQSGGGVVQPGRSLRLSCAASGFTFSSYGMHWVRQAPGKGLEWVAFIRYDGSNKYYADSVKGRFTISRDNSKNTLYLQMKSLRAEDTAVYYCKTHGSHDNWGQGTMVTVSS VL: SYVLTQPPSVSGTPGQRVTISCSGGRSNIGSNTVKWYQQLPGTAPKLLIYQNDQRPSGVPDRFSGSKSGTSASLAITGVQAEDEADYYCQSYDRGTHPALLFGTGTKVTVLG
18 | – | 0.000953 s⁻¹ | SEQ ID NO: 520 (Y61, M at L50) (antibody, V domains shown) VH: QVQLVQSGGGVVQPGRSLRLSCAASGFTFSSYGMHWVRQAPGKGLEWVAFIRYDGSNKYYADSVKGRFTISRDNSKNTLYLQMKSLRAEDTAVYYCKTHGSHDNWGQGTMVTVSS VL: SYVLTQPPSVSGTPGQRVTISCSGGRSNIGSNTVKWYQQLPGTAPKLLIYMNDQRPSGVPDRFSGSKSGTSASLAITGVQAEDEADYYCQSYDRGTHPALLFGTGTKVTVLG
19 | – | 0.000616 s⁻¹ | SEQ ID NO: 521 (Y61, L at L50) (antibody, V domains shown) VH: QVQLVQSGGGVVQPGRSLRLSCAASGFTFSSYGMHWVRQAPGKGLEWVAFIRYDGSNKYYADSVKGRFTISRDNSKNTLYLQMKSLRAEDTAVYYCKTHGSHDNWGQGTMVTVSS VL: SYVLTQPPSVSGTPGQRVTISCSGGRSNIGSNTVKWYQQLPGTAPKLLIYLNDQRPSGVPDRFSGSKSGTSASLAITGVQAEDEADYYCQSYDRGTHPALLFGTGTKVTVLG
20 | – | 0.000385 s⁻¹ | SEQ ID NO: 519 (Y61, V at L50) (antibody, V domains shown) VH: QVQLVQSGGGVVQPGRSLRLSCAASGFTFSSYGMHWVRQAPGKGLEWVAFIRYDGSNKYYADSVKGRFTISRDNSKNTLYLQMKSLRAEDTAVYYCKTHGSHDNWGQGTMVTVSS VL: SYVLTQPPSVSGTPGQRVTISCSGGRSNIGSNTVKWYQQLPGTAPKLLIYVNDQRPSGVPDRFSGSKSGTSASLAITGVQAEDEADYYCQSYDRGTHPALLFGTGTKVTVLG
